Results from IntAct's records for PubMed 26922829.

The substances below were run against crp_human CRP (UniProt P02741).
Sequence of crp_human CRP (P02741 whole entry): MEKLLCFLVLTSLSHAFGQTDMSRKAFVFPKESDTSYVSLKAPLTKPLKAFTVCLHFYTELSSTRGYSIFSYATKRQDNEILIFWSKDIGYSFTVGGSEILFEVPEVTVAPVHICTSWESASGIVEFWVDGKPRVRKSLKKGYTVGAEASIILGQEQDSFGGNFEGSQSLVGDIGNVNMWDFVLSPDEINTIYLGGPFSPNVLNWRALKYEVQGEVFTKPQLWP

Row | Substance | effect of a mutation on the interaction
1 | Collectin-12 (Homo sapiens), Q5KU26 R448A;R451A;R454A | decreasing interaction strength
2 | Collectin-12 (Homo sapiens), Q5KU26 R496A;K499A;K502A | disrupting interaction strength
3 | Collectin-12 (Homo sapiens), Q5KU26 K466A;K469A;K472A | with no effect
4 | Collectin-12 (Homo sapiens), Q5KU26 R448A;R451A;R454A;K466A;K469A;K472A;R496A;K499A;K502A | decreasing interaction strength
